The results in this text go back to PMC9620234, “Design, Synthesis, and Biochemical and Biological Evaluation of Novel 7-Deazapurine Cyclic Dinucleotide Analogues as STING Receptor Agonists” (Journal of Medicinal Chemistry, 2022).

The series deals with the molecule itself. Kind of series: crystal structure; wt hSTING (140-379) co-crystallised with CDN 5f, 5k, 5l or 5m; sitting drop vapor diffusion, 18 °C; chains A/B with one ligand molecule.

B1: human wild-type STING truncated to residues 140–379 (domain or fragment, UniProt Q86WV6 140-379, looked up)
chain: APAEISAVCEKGNFNVAHGLAWSYYIGYLRLILPELQARIRTYNQHYNNLLRGAVSQRLYILLPLDCGVPDNLSMADPNIRFLDKLPQQTGDHAGIKDRVYSNSIYELLENGQRAGTCVLEYATPLQTLFAMSQYSQAGFSREDRLEQAKLFCRTLEDILADAPESQNNCRLIAYQEPADDSSFSLSQEVLRHLRQEEKEEVTVGSLKTSAVPSTSTMSQEPELLISGMEKPLPLRTDFS
notes: stimulator of interferon genes (STING), human, wild-type allele, UniProt Q86WV6, residues 140-379; Each crystal also holds one cyclic dinucleotide ligand (5f, 5k, 5l or 5m) in the site between the two chains; also called wt hSTING; stimulator of interferon genes; source: E. coli BL21 (DE3), purified (Ni-NTA, Ulp1 protease digestion, SEC, HiTrap Capto S)
With B1, the binding result is recorded as “binds”.
